# Data from publication PMC10403523, “The AT-hook is an evolutionarily conserved auto-regulatory domain of SWI/SNF required for cell lineage priming” (Nature Communications, 2023).
# B1: Snf2, catalytic subunit of yeast SWI/SNF, with a C-terminal double FLAG epitope (enzyme)
# chain: MNIPQRQFSNEEVNRCYLRWQHLRNEHGMNAPSVPEFIYLTKVLQFAAKQRQELQMQRQQQGISGSQQNIVPNSSDQAELPNNASSHISASASPHLAPNMQLNGNETFSTSAHQSPIMQTQMPLNSNGGNNMLPQRQSSVGSLNATNFSPTPANNGENAAEKPDNSNHNNLNLNNSELQPQNRSLQEHNIQDSNVMPGSQINSPMPQQAQMQQAQFQAQQAQQAQQAQQAQQAQARLQQGRRLPMTMFTAEQSELLKAQITSLKCLVNRKPIPFEFQAVIQKSINHPPDFKRMLLSLSEFARRRQPTDQNNQSNLNGGNNTQQPGTNSHYNNTNTDNVSGLTRNAPLDSKDENFASVSPAGPSSVHNAKNGTLDKNSQTVSGTPITQTESKKEENETISNVAKTAPNSNKTHTEQNNPPKPQKPVPLNVLQDQYKEGIKVVDIDDPDMMVDSFTMPNISHSNIDYQTLLANSDHAKFTIEPGVLPVGIDTHTATDIYQTLIALNLDTTVNDCLDKLLNDECTESTRENALYDYYALQLLPLQKAVRGHVLQFEWHQNSLLTNTHPNFLSKIRNINVQDALLTNQLYKNHELLKLERKKTEAVARLKSMNKSAINQYNRRQDKKNKRLKFGHRLIATHTNLERDEQKRAEKKAKERLQALKANDEEAYIKLLDQTKDTRITHLLRQTNAFLDSLTRAVKDQQKYTKEMIDSHIKEASEEVDDLSMVPKMKDEEYDDDDDNSNVDYYNVAHRIKEDIKKQPSILVGGTLKDYQIKGLQWMVSLFNNHLNGILADEMGLGKTIQTISLLTYLYEMKNIRGPYLVIVPLSTLSNWSSEFAKWAPTLRTISFKGSPNERKAKQAKIRAGEFDVVLTTFEYIIKERALLSKVKWVHMIIDEGHRMKNAQSKLSLTLNTHYHADYRLILTGTPLQNNLPELWALLNFVLPKIFNSVKSFDEWFNTPFANTGGQDKIELSEEETLLVIRRLHKVLRPFLLRRLKKDVEKELPDKVEKVVKCKMSALQQIMYQQMLKYRRLFIGDQNNKKMVGLRGFNNQIMQLKKICNHPFVFEEVEDQINPTRETNDDIWRVAGKFELLDRILPKLKATGHRVLIFFQMTQIMDIMEDFLRYINIKYLRLDGHTKSDERSELLRLFNAPDSEYLCFILSTRAGGLGLNLQTADTVIIFDTDWNPHQDLQAQDRAHRIGQKNEVRILRLITTNSVEEVILERAYKKLDIDGKVIQAGKFDNKSTSEEQEALLRSLLDAEEERRKKRESGVEEEEELKDSEINEILARNDEEMAVLTRMDEDRSKKEEELGVKSRLLEKSELPDIYSRDIGAELKREESESAAVYNGRGARERKTATYNDNMSEEQWLRQFEVSDDEKNDKQARKQRTKKEDKSEAIDGNGEIKGENIDADNDGPRINNISAEDRADTDLAMNDDDFLSKKRKAGRPRGRPKKVKLEGSENSEPPALESSPVTGDNSPSEDFMDIPKPRTAGKTSVKSARTSTRGRGRGRGRGRGRGRGRGRPPKARNGLDYVRTPAAATSPIDIREKVAKQALDLYHFALNYENEAGRKLSDIFLSKPSKALYPDYYMIIKYPVAFDNINTHIETLAYNSLKETLQDFHLIFSNARIYNTEGSVVYEDSLELEKVVTKKYCEIMGDNSQLDFTEFDEQYGTRPLVLPPVVTSSVAESFTDEADSSMTEASV
# notes: Snf2, catalytic subunit of SWI/SNF, S. cerevisiae; also called WT; SNF2-2FLAG; source: S. cerevisiae, SNF2-2FLAG in a Δsnf2 strain; not shown: FLAG x2, C-terminal, kept
# Target: T1, histone H4 of Xenopus laevis, in the 29N59 nucleosome (Xenopus laevis, UniProt P62799 1-103)
# T1 construct: histone H4, Xenopus laevis; Stood within the nucleosome in the cross-linking
# Test: cross-linking; BS3 cross-linking with mass spectrometry (CX-MS): 35 nM FLAG tagged SWI/SNF, 35 nM 29-N-59 nucleosomes, 200 nM Gal4-VP16, 115 μM BS3, room temperature, 2 h
# Conditions: both partners purified
binder,measurement,value
B1,binding result,binds
